# Target: T1, human LAG-3 (huLAG-3), full length, expressed on the cell surface (human, UniProt P18627 23-525)
# T1 sequence: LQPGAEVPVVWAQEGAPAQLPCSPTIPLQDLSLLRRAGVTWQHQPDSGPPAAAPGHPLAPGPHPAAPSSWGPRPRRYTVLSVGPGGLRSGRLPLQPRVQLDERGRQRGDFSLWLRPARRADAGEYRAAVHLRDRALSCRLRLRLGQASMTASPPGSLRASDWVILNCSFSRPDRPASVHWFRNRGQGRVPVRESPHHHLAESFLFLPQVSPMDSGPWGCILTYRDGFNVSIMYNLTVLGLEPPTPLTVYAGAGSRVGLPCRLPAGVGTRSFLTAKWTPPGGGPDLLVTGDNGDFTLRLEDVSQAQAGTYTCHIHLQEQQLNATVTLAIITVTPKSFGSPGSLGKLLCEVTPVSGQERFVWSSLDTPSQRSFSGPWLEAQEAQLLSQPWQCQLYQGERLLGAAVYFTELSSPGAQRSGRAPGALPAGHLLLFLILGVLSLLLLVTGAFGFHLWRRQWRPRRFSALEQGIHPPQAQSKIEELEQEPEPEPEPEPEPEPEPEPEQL
# Assay: not given
row,Binder,EC50
1,"MG7144 (monovalent) (bispecific antibody, V domains shown) VH 1: QVQLVQSGAEVRKPGSSVMVSCKASGGTFSTYAINWLRQAPGQGLEWMGGIIPIFGTPYYGQRFQGRVTITADKSTNTVFMELSSLRSEDTAIYYCARDRDSGGLYYFDSWGQGTLVTVSS VH 2: not shown VL: not shown",10.2 µg/mL
2,"MG7185 (monovalent) (bispecific antibody, V domains shown) VH 1: QVQLVQSGAEVKKPGSSVKVSCKTSGGTFSNYAFSWVRQAPGQGLEWMGGIIPIFGSTNYAQSFQGRVTITADKSTSTAYMELSSLRSEDTAVYYCARDREMGTLYFFDQWGQGTTVTVSS VH 2: not shown VL: not shown",4.49 µg/mL
3,"MG7139 (monovalent) (bispecific antibody, V domains shown) VH 1: QVQLVQSGAEVKKPGSSVKVSCKASGGTFSNFAFSWVRQAPGQGLEWMGGIIPMFDTAKYAQKFQGRVTIIADKSTNTAYMDLNSLRSEDTAVYYCVRDRAIGTLYYFDYWGQGTLVTVSS VH 2: not shown VL: not shown",5.71 µg/mL
4,MG7137 (monovalent) (bispecific antibody) VH 1: QVQLVQSGAEVKRPGASVKVSCKVSGYTLTELSMHWVRQAPGKGLEWMGGSDPEHGETVDAQKFQGRVTMTEDTSTDTAYMELSSLRSEDTAVYYCTTGGTYYYGSGSYYTLDFWGQGTLVTVSS VH 2: not shown light: not shown,1.68 µg/mL
5,"MG7133 (monovalent) (bispecific antibody, V domains shown) VH 1: EVQLVQSGAEVKKPGSSVKVSCKASGGTFSSHAISWVRQVPGQGLEWMGGIIPLFDTAKNAQKFQGRVTITADKSTSTAYMELSSLRSEDTAVYYCARDRETGTLYYFDYWGQGTLVTVSS VH 2: not shown VL: not shown",11.2 µg/mL
6,MG7106 (monovalent) (bispecific antibody) VH 1: QVQLVQSGAEVKKPGSSVKVSCKASGGTFSKYVVSWVRQAPGQGFDWMGGIIPMFGTANYAQMFQGRVTITADKSTSTVNMELSSLRSEDTAVYYCVRDKAVAGLYYFDSWGQGTLVTVSS VH 2: not shown light: not shown,26.5 µg/mL
7,"MG7524 (monovalent) (bispecific antibody, V domains shown) VH 1: QVQLVQSGAEVKKPGASVKVSCKASGYTFTSYGISWVRQAPGQGLEWMGWISAYSGNTNYAQKLQGRVTMTTDTSTSTAYMELRSLRSDDTAVYYCARGSILAAQMWGDIWGQGTLVTVSS VH 2: not shown VL: not shown",4.2 µg/mL

# Target: T1, human LAG-3 (huLAG-3), full length, …
# Assay: not given
# Remark: another data set of the same source
row,Binder,EC50 (read off the curve)
1,"PG7116, bivalent LAG-3 IgG with two MF7116 variable domains (antibody, V domains shown, Bivalent monospecific IgG) VH: EVQLVESGGGVVQPGRSLRLSCAASGFTFSSYGMHWVRQAPGKGLEWVAVISYHGSDKYYADSVKGRFTISRDNSKNTLYLQMNSLRAEDTAVYYCARDGDNWDVFDIWGQGTLVTVSS VL: not shown",~0.1 µg/mL

# Target: T1, human LAG-3 (huLAG-3), full length, …
# Assay: FACS on HEK293T cells with mouse/human LAG-3 hybrid constructs, bivalent IgG; bin = human domain bound
row,Binder,binding result
1,"bivalent LAG-3 IgG with MF7146 variable domains (antibody, V domains shown, Bivalent monospecific IgG; copies: 2 + 2) VH: EVQLVQSGAEVKKPGSSVKVSCKASGGTFNNYFITWVRQAPGQGLEWMGGIIPSFGTGNYAQKFQGRVAITADKSTNTAYMELSSLRSEDTAIYYCVRDREVGAIYYFDYWGQGTMVTVSS VL: not shown",binds
2,"bivalent LAG-3 IgG with MF7165 variable domains (antibody, V domains shown, Bivalent monospecific IgG; copies: 2 + 2) VH: QVQLVQSGAEVRKPGASVKVSCKVSGYTLTELSIHWVRQAPGKGLEWMGAFDPEDGETIYAQKFQGRVTMTEDTSTDTAYMELSSLRSEDTAVYFCATGGTYYYGSGSYYTLDYWGQGTLVTVSS VL: not shown",binds
3,"bivalent LAG-3 IgG with MF7515 variable domains (antibody, V domains shown, Bivalent monospecific IgG; copies: 2 + 2) VH: QVQLVQSGAEVKKPGASVKVSCKASGYTFTSYGISWVRQAPGQGLEWMGWISAYSGNTNYAQKLQGRVTMTTDTSTSTAYMELRSLRSDDTAVYYCARRPGPALGDLDSWGQGTLVTVSS VL: not shown",binds

# Target: T2, LAG-3 overexpressed on Jurkat/NFAT-RE reporter cells (Promega) (UniProt P18627 23-525)
# T2 sequence (looked up): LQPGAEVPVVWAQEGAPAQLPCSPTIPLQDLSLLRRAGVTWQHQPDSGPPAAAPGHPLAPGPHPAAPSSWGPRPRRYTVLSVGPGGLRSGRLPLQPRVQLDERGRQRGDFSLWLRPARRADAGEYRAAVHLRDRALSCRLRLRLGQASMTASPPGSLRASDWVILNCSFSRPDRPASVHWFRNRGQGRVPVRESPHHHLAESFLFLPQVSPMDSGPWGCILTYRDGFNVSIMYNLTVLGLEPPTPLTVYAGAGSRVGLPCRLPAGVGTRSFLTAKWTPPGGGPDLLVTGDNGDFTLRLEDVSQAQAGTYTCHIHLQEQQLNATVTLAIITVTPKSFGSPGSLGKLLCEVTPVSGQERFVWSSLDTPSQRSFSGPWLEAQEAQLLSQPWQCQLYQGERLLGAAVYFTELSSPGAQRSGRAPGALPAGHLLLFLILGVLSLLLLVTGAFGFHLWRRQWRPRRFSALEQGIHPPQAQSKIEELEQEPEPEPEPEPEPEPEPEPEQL
# Assay: cell-based or functional assay
row,Binder,"LAG-3 blockade reporter assay (Jurkat LAG-3 reporter cells with Raji MHCII cells), activity as bivalent IgG, AUC"
1,"bivalent LAG-3 IgG with MF7185 variable domains (antibody, V domains shown) VH: QVQLVQSGAEVKKPGSSVKVSCKTSGGTFSNYAFSWVRQAPGQGLEWMGGIIPIFGSTNYAQSFQGRVTITADKSTSTAYMELSSLRSEDTAVYYCARDREMGTLYFFDQWGQGTTVTVSS VL: not shown",20.9 % of control
2,"PG7116, bivalent LAG-3 IgG with two MF7116 variable domains (antibody, V domains shown, Bivalent monospecific IgG) VH: EVQLVESGGGVVQPGRSLRLSCAASGFTFSSYGMHWVRQAPGKGLEWVAVISYHGSDKYYADSVKGRFTISRDNSKNTLYLQMNSLRAEDTAVYYCARDGDNWDVFDIWGQGTLVTVSS VL: not shown",57.1 % of control
3,"bivalent LAG-3 IgG with MF7134 variable domains (antibody, V domains shown) VH: EVQLVQSGSELKKPGASVKVSCKASGYTFTTNALNWVRQAPGQGLEWMGWINTHTGNPTYAQGFIGRFVFSLDTSVSTAYLQIRSLKAEDTAVYYCAREPNWGVYFDYWGQGTLVTVSS VL: not shown",34.3 % of control
4,"bivalent LAG-3 IgG with MF7137 variable domains (antibody, V domains shown) VH: QVQLVQSGAEVKRPGASVKVSCKVSGYTLTELSMHWVRQAPGKGLEWMGGSDPEHGETVDAQKFQGRVTMTEDTSTDTAYMELSSLRSEDTAVYYCTTGGTYYYGSGSYYTLDFWGQGTLVTVSS VL: not shown",51.2 % of control
5,"bivalent LAG-3 IgG with MF7100 variable domains (antibody, V domains shown) VH: EVQLVESGGGVVQPGRSLRLSCAASGFTFSSYDTHWVRQAPGKGLEWVAVISYDGSNKYYADSVKGRFTISRDNSKNTLYLQMNSLRAEDTAMYYCARERGWDVFDIWGQGTLVTVSS VL: not shown",39.8 % of control
6,"bivalent LAG-3 IgG with MF7118 variable domains (antibody, V domains shown) VH: EVQLVESGGGLVQPGGSLRLSCAASGFTFSSYAMSWVRQAPGKGLEWVSSISGGGVSTFYADSVKGRFTISRDNSKNTLYLQMNSLRAEDTAVYYCAIVPAAATPSGTYYWIFDLWGRGTLVTVSS VL: not shown",2.04 % of control
7,"bivalent LAG-3 IgG with MF7518 variable domains (antibody, V domains shown) VH: QVQLVQSGAEVKKPGASVKVSCKASGYTFTSYGISWVRQAPGQGLEWMGWISAYSGNTNYAQKLQGRVTMTTDTSTSTAYMELRSLRSDDTAVYYCARDGSGWDDFDYWGQGTLVTVSS VL: not shown",64.7 % of control
8,"bivalent LAG-3 IgG with MF7106 variable domains (antibody, V domains shown) VH: QVQLVQSGAEVKKPGSSVKVSCKASGGTFSKYVVSWVRQAPGQGFDWMGGIIPMFGTANYAQMFQGRVTITADKSTSTVNMELSSLRSEDTAVYYCVRDKAVAGLYYFDSWGQGTLVTVSS VL: not shown",16.3 % of control
9,"bivalent LAG-3 IgG with MF7096 variable domains (antibody, V domains shown) VH: QVQLQESGPGLVRPSETLSLTCTVSGGSISSYSWSWIRQPPGKGLEWIGYIDYSGSTNYNPSLKSRVTISVDTSKTQFSLKLSSVSAADTAVYYCAKDLLYKWNYVEGFDIWGQGTTVTVSS VL: not shown",35.7 % of control
10,"bivalent LAG-3 IgG with MF7097 variable domains (antibody, V domains shown) VH: QVQLQESGPGLVKPSETLSLTCTVSGGSISSYSWSWIRQPPGKGLEWIGYIDYSGTTNFNPSLKSRVTISVDTSKTQFSLKLSSVSAADTAVYYCAKDLLYKWNYVEGFDIWGQGTMVTVSS VL: not shown",21.4 % of control
11,"bivalent LAG-3 IgG with MF7111 variable domains (antibody, V domains shown) VH: QVQLQESGPGLVKPSETLSLTCTVSDDSISDYYWSWIRQPPGKGLEWIGYIYYSGNTKYNPSLKNRVTISVDTSKSQFSLKLTSVTAADTAVYYCARIPLTGEFDYWAQGTLVTVSS VL: not shown",51.2 % of control
12,"bivalent LAG-3 IgG with MF7167 variable domains (antibody, V domains shown) VH: EVQLVESGGGLVQPGGSLRLSCAASGFTFSSYAMNWVRQAPGKGLEWVSTISGSGVSTYYADSVKGRFTISRDNSKNTLYLQMNTLRAEDTAVYYCAKDRGYDYSGSYHNWFDPWGQGTLVTVSS VL: not shown",-1.33 % of control

# Target: T1, human LAG-3 (huLAG-3), full length, …
# Assay: not given
# Remark: another data set of the same source
row,Binder,EC50 (read off the curve)
1,"H4sH15482P* (antibody, V domains shown) VH: QVQLVESGGGVVQPGRSLRLSCVASGFTFSSYGMHWVRQAPGKGLEWVAIIWYDGSNKYYADSVKGRFTISRDNSKNTQYLQMNSLRAEDTAVYYCASVATSGDFDYYGMDVWGQGTTVTVSS VL: EIVLTQSPATLSLSPGERTTLSCRASQRISTYLAWYQQKPGQAPRLLIYDASKRATGIPARFSGSGSGTGFTLTISSLEPEDFAVYYCQQRSNWPLTFGGGTKVEIKR",~0.1 µg/mL

# Source: patent US11732043 (MERUS N V, dated 2023)
